In US20060099684A1 one finds IC50 of inhibition of MMP activity (quantitative radiometric 14C-collagen film assay) data, which are given here for one substance.

This assay deals with activated type I collagenase. Description: cell-based or functional assay.

“T2N (three N-terminal disulfide-bonded loops of human TIMP-2, C-terminal His-tag, expressed in Pichia pastoris) (from UniProt P16035 27-153)” yielded an IC50 of inhibition of MMP activity (quantitative radiometric 14C-collagen film assay) of 7.5 nM.
